Target: T1, Cre recombinase monomer with Q311R mutation
T1 chain: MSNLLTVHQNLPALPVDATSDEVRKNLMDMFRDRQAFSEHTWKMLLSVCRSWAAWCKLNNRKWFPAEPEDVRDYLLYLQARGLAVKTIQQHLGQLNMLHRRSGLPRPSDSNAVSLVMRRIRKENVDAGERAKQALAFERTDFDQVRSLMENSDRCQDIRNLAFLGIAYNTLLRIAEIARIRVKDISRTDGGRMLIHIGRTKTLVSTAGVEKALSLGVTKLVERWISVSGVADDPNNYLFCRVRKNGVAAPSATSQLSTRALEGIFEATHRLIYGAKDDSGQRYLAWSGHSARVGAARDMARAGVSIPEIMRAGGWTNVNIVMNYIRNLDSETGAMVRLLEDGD

B1: Cre recombinase monomer with R292L mutation (protein)
chain: MSNLLTVHQNLPALPVDATSDEVRKNLMDMFRDRQAFSEHTWKMLLSVCRSWAAWCKLNNRKWFPAEPEDVRDYLLYLQARGLAVKTIQQHLGQLNMLHRRSGLPRPSDSNAVSLVMRRIRKENVDAGERAKQALAFERTDFDQVRSLMENSDRCQDIRNLAFLGIAYNTLLRIAEIARIRVKDISRTDGGRMLIHIGRTKTLVSTAGVEKALSLGVTKLVERWISVSGVADDPNNYLFCRVRKNGVAAPSATSQLSTRALEGIFEATHRLIYGAKDDSGQRYLAWSGHSALVGAARDMARAGVSIPEIMQAGGWTNVNIVMNYIRNLDSETGAMVRLLEDGD
For B1, which “Median dimer activity (recombination on loxP)” value (“Median dimer activity” for short) is on record?
Its value is 93%.

B2: Cre recombinase monomer with E176L mutation (protein)
chain: MSNLLTVHQNLPALPVDATSDEVRKNLMDMFRDRQAFSEHTWKMLLSVCRSWAAWCKLNNRKWFPAEPEDVRDYLLYLQARGLAVKTIQQHLGQLNMLHRRSGLPRPSDSNAVSLVMRRIRKENVDAGERAKQALAFERTDFDQVRSLMENSDRCQDIRNLAFLGIAYNTLLRIALIARIRVKDISRTDGGRMLIHIGRTKTLVSTAGVEKALSLGVTKLVERWISVSGVADDPNNYLFCRVRKNGVAAPSATSQLSTRALEGIFEATHRLIYGAKDDSGQRYLAWSGHSARVGAARDMARAGVSIPEIMQAGGWTNVNIVMNYIRNLDSETGAMVRLLEDGD
With B2 as the protein, how does the “Median dimer activity” value read?
The value was 40%.

B3: Cre recombinase monomer with R292V mutation (protein)
chain: MSNLLTVHQNLPALPVDATSDEVRKNLMDMFRDRQAFSEHTWKMLLSVCRSWAAWCKLNNRKWFPAEPEDVRDYLLYLQARGLAVKTIQQHLGQLNMLHRRSGLPRPSDSNAVSLVMRRIRKENVDAGERAKQALAFERTDFDQVRSLMENSDRCQDIRNLAFLGIAYNTLLRIAEIARIRVKDISRTDGGRMLIHIGRTKTLVSTAGVEKALSLGVTKLVERWISVSGVADDPNNYLFCRVRKNGVAAPSATSQLSTRALEGIFEATHRLIYGAKDDSGQRYLAWSGHSAVVGAARDMARAGVSIPEIMQAGGWTNVNIVMNYIRNLDSETGAMVRLLEDGD
Which “Median dimer activity” value does the source give for B3 here?
The value was 95%.

B4: Cre recombinase monomer with R292S mutation (protein)
chain: MSNLLTVHQNLPALPVDATSDEVRKNLMDMFRDRQAFSEHTWKMLLSVCRSWAAWCKLNNRKWFPAEPEDVRDYLLYLQARGLAVKTIQQHLGQLNMLHRRSGLPRPSDSNAVSLVMRRIRKENVDAGERAKQALAFERTDFDQVRSLMENSDRCQDIRNLAFLGIAYNTLLRIAEIARIRVKDISRTDGGRMLIHIGRTKTLVSTAGVEKALSLGVTKLVERWISVSGVADDPNNYLFCRVRKNGVAAPSATSQLSTRALEGIFEATHRLIYGAKDDSGQRYLAWSGHSASVGAARDMARAGVSIPEIMQAGGWTNVNIVMNYIRNLDSETGAMVRLLEDGD
How did the “Median dimer activity” value turn out when B4 was run?
The value was 97%.

B5: Cre recombinase monomer with R292W mutation (protein)
chain: MSNLLTVHQNLPALPVDATSDEVRKNLMDMFRDRQAFSEHTWKMLLSVCRSWAAWCKLNNRKWFPAEPEDVRDYLLYLQARGLAVKTIQQHLGQLNMLHRRSGLPRPSDSNAVSLVMRRIRKENVDAGERAKQALAFERTDFDQVRSLMENSDRCQDIRNLAFLGIAYNTLLRIAEIARIRVKDISRTDGGRMLIHIGRTKTLVSTAGVEKALSLGVTKLVERWISVSGVADDPNNYLFCRVRKNGVAAPSATSQLSTRALEGIFEATHRLIYGAKDDSGQRYLAWSGHSAWVGAARDMARAGVSIPEIMQAGGWTNVNIVMNYIRNLDSETGAMVRLLEDGD
Which “Median dimer activity” value does the source give for B5 here?
The value was 88%.

B6: Cre recombinase monomer with R173A mutation (protein)
chain: MSNLLTVHQNLPALPVDATSDEVRKNLMDMFRDRQAFSEHTWKMLLSVCRSWAAWCKLNNRKWFPAEPEDVRDYLLYLQARGLAVKTIQQHLGQLNMLHRRSGLPRPSDSNAVSLVMRRIRKENVDAGERAKQALAFERTDFDQVRSLMENSDRCQDIRNLAFLGIAYNTLLAIAEIARIRVKDISRTDGGRMLIHIGRTKTLVSTAGVEKALSLGVTKLVERWISVSGVADDPNNYLFCRVRKNGVAAPSATSQLSTRALEGIFEATHRLIYGAKDDSGQRYLAWSGHSARVGAARDMARAGVSIPEIMQAGGWTNVNIVMNYIRNLDSETGAMVRLLEDGD
For B6, which “Median dimer activity” value is on record?
The value was 93%.

B7: Cre recombinase monomer with R292P mutation (protein)
chain: MSNLLTVHQNLPALPVDATSDEVRKNLMDMFRDRQAFSEHTWKMLLSVCRSWAAWCKLNNRKWFPAEPEDVRDYLLYLQARGLAVKTIQQHLGQLNMLHRRSGLPRPSDSNAVSLVMRRIRKENVDAGERAKQALAFERTDFDQVRSLMENSDRCQDIRNLAFLGIAYNTLLRIAEIARIRVKDISRTDGGRMLIHIGRTKTLVSTAGVEKALSLGVTKLVERWISVSGVADDPNNYLFCRVRKNGVAAPSATSQLSTRALEGIFEATHRLIYGAKDDSGQRYLAWSGHSAPVGAARDMARAGVSIPEIMQAGGWTNVNIVMNYIRNLDSETGAMVRLLEDGD
Which “Median dimer activity” value does the source give for B7 here?
Its value is 76%.

B8: Cre recombinase monomer with R173K mutation (protein)
chain: MSNLLTVHQNLPALPVDATSDEVRKNLMDMFRDRQAFSEHTWKMLLSVCRSWAAWCKLNNRKWFPAEPEDVRDYLLYLQARGLAVKTIQQHLGQLNMLHRRSGLPRPSDSNAVSLVMRRIRKENVDAGERAKQALAFERTDFDQVRSLMENSDRCQDIRNLAFLGIAYNTLLKIAEIARIRVKDISRTDGGRMLIHIGRTKTLVSTAGVEKALSLGVTKLVERWISVSGVADDPNNYLFCRVRKNGVAAPSATSQLSTRALEGIFEATHRLIYGAKDDSGQRYLAWSGHSARVGAARDMARAGVSIPEIMQAGGWTNVNIVMNYIRNLDSETGAMVRLLEDGD
How did the “Median dimer activity” value turn out when B8 was run?
Its value is 84%.

B9: Cre recombinase monomer with R292Q mutation (protein)
chain: MSNLLTVHQNLPALPVDATSDEVRKNLMDMFRDRQAFSEHTWKMLLSVCRSWAAWCKLNNRKWFPAEPEDVRDYLLYLQARGLAVKTIQQHLGQLNMLHRRSGLPRPSDSNAVSLVMRRIRKENVDAGERAKQALAFERTDFDQVRSLMENSDRCQDIRNLAFLGIAYNTLLRIAEIARIRVKDISRTDGGRMLIHIGRTKTLVSTAGVEKALSLGVTKLVERWISVSGVADDPNNYLFCRVRKNGVAAPSATSQLSTRALEGIFEATHRLIYGAKDDSGQRYLAWSGHSAQVGAARDMARAGVSIPEIMQAGGWTNVNIVMNYIRNLDSETGAMVRLLEDGD
For B9, which “Median dimer activity” value is on record?
The value was 70%.

B10: Cre recombinase monomer with R292N mutation (protein)
chain: MSNLLTVHQNLPALPVDATSDEVRKNLMDMFRDRQAFSEHTWKMLLSVCRSWAAWCKLNNRKWFPAEPEDVRDYLLYLQARGLAVKTIQQHLGQLNMLHRRSGLPRPSDSNAVSLVMRRIRKENVDAGERAKQALAFERTDFDQVRSLMENSDRCQDIRNLAFLGIAYNTLLRIAEIARIRVKDISRTDGGRMLIHIGRTKTLVSTAGVEKALSLGVTKLVERWISVSGVADDPNNYLFCRVRKNGVAAPSATSQLSTRALEGIFEATHRLIYGAKDDSGQRYLAWSGHSANVGAARDMARAGVSIPEIMQAGGWTNVNIVMNYIRNLDSETGAMVRLLEDGD
For B10, which “Median dimer activity” value is on record?
Its value is 95%.
